From publication PMC11587947

Experiments:
Assay in all cases: turbidimetry of self-assembly
[1] = target: HIV-1 capsid protein CA mutant E180A (HIV-1 (strain BH10))
[2] = target: HIV-1 capsid protein CA mutant V165A (HIV-1 (strain BH10))
[3] = target: HIV-1 capsid protein CA mutant P38A (HIV-1 (strain BH10))
[4] = target: HIV-1 capsid protein CA mutant E45A (HIV-1 (strain BH10))
[5] = target: HIV-1 capsid protein CA mutant S178A (HIV-1 (strain BH10))
[6] = target: HIV-1 capsid protein CA mutant Q192A (HIV-1 (strain BH10))
[7] = target: HIV-1 capsid protein CA mutant Q63A (HIV-1 (strain BH10))

Substance: HIV-1 capsid protein CA mutant E180A (natural protein)
- growth rate constant kg relative to wt [1]: 0.8 fold of wt

Substance: HIV-1 capsid protein CA mutant V165A (natural protein)
- growth rate constant kg relative to wt [2]: 28 fold of wt
- nucleation rate constant kn relative to wt [2]: > 100 fold of wt

Substance: HIV-1 capsid protein CA mutant P38A (natural protein)
- growth rate constant kg relative to wt [3]: 18.5 fold of wt

Substance: HIV-1 capsid protein CA mutant E45A (natural protein)
- growth rate constant kg relative to wt [4]: 11.5 fold of wt

Substance: HIV-1 capsid protein CA mutant S178A (natural protein)
- growth rate constant kg relative to wt [5]: 5.6 fold of wt

Substance: HIV-1 capsid protein CA mutant Q192A (natural protein)
- growth rate constant kg relative to wt [6]: 2.7 fold of wt

Substance: HIV-1 capsid protein CA mutant Q63A (natural protein)
- growth rate constant kg relative to wt [7]: 0.6 fold of wt
